Experimental data published in US20080063651A1 (published 2008).

Target: T1, Recombinant human TNF-α (human, UniProt P01375 77-233)
T1 construct: also called tumor necrosis factor-α; biotinylated TNF-α
Experiment: 35S-labelled free protein with biotinylated TNF-α, biotin capture membrane, phosphorimaging

T1 sequence (P01375 77-233 limits assumed): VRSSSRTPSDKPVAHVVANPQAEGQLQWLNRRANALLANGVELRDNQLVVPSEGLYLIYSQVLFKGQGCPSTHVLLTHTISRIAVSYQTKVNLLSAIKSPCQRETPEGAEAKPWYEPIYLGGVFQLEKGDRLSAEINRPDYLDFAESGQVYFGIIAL

B1: clone M12.04 (designed binder)
chain: VSDVPGDLEVVAATPTSLLIGWSMTPNWPRYYRIAYGETGGDSPVQEFTVPPWASIAIIGGLKPGVDYTITVYAVTHRDTPISINYRT
Binder B1 has a Kd of 20 µM.

B2: clone T09.12 (designed binder)
chain: VSDVPRDLEVVAATPTSLLISWRPTSNPPRYYRITYGETGGNSPVQEFTVPPWASTATISGLKPGVDYTITVYAVTAQTGHHLHDKPISINYRT
In the case of B2, the Kd is reported as 0.004 µM.
